Reference: patent US20240141059A1 (Bristol-Myers Squibb, published 2024)
Residue numbers refer to the chain shown, from its start. Values joined by “and” are separate entries in the source; they are usually repeats but may differ in a detail not shown here. Identical values can stand only once. Like-named read-outs stand apart in the source and are kept apart here.

B1: 11F11 (antibody, human IgG2, kappa, V domains shown)
VH: QVQLVESGGGVVQPGRSLRLSCATSGFTFSNYGMHWVRQAPGKGLEWVAVILYDGSNKYYPDSVKGRFTISRDNSKNTLYLQMNSLRAEDTAVYYCARGGSSWYPDSFDIWGQGTMVTVSS
VL: DIQMTQSPSSLSASVGDRVTITCRASQGISSWLAWYQQKPEKAPKSLIYAASSLQSGVPSRFSGSGSGTDFTLTISSLQPEDFATYYCQQYNSYPLTFGGGTKVEIKR
notes: hybridoma derived anti-CD73 antibody, IgG2 constant region; also called 11F11 (IgG2)
B2: CD73.4-IgG2.3-plusTHT (antibody)
heavy: QVQLVESGGGVVQPGRSLRLSCAASGFTFSNYGMHWVRQAPGKGLEWVAVILYDGSNKYYPDSVKGRFTISRDNSKNTLYLQMNSLRAEDTAVYYCARGGSSWYPDSFDIWGQGTMVTVSSASTKGPSVFPLAPCSRSTSESTAALGCLVKDYFPEPVTVSWNSGALTSGVHTFPAVLQSSGLYSLSSVVTVPSSNFGTQTYTCNVDHKPSNTKVDKTVERKSCVETHTCPPCPAPPVAGPSVFLFPPKPKDTLMISRTPEVTCVVVDVSHEDPEVQFNWYVDGVEVHNAKTKPREEQFNSTFRVVSVLTVVHQDWLNGKEYKCKVSNKGLPAPIEKTISKTKGQPREPQVYTLPPSREEMTKNQVSLTCLVKGFYPSDIAVEWESNGQPENNYKTTPPMLDSDGSFFLYSKLTVDKSRWQQGNVFSCSVMHEALHNHYTQKSLSLSPGK
light: not shown
notes: also called mAb-CD73.4-IgG2.3-plusTHT; CD73.4-Vh-hHC-IgG2.3-plusTHT
B3: CD73.4-IgG2.3-plusGGG (antibody)
heavy: B2 heavy with T227G, H228G, T229G
light: not shown
notes: also called mAb-CD73.4-IgG2.3-plusGGG; CD73.4-Vh-hHC-IgG2.3-plusGGG
B4: CD73.4-IgG2.5-plusTHT (antibody)
heavy: B2 heavy with C135S, S223C
light: not shown
notes: also called mAb-CD73.4-IgG2.5plusTHT/LC; CD73.4-Vh-hHC-IgG2.5plusTHT/LC
B5: CD73.4-IgG2-C219S (antibody)
heavy: QVQLVESGGGVVQPGRSLRLSCAASGFTFSNYGMHWVRQAPGKGLEWVAVILYDGSNKYYPDSVKGRFTISRDNSKNTLYLQMNSLRAEDTAVYYCARGGSSWYPDSFDIWGQGTMVTVSSASTKGPSVFPLAPCSRSTSESTAALGCLVKDYFPEPVTVSWNSGALTSGVHTFPAVLQSSGLYSLSSVVTVPSSNFGTQTYTCNVDHKPSNTKVDKTVERKSCVECPPCPAPPVAGPSVFLFPPKPKDTLMISRTPEVTCVVVDVSHEDPEVQFNWYVDGVEVHNAKTKPREEQFNSTFRVVSVLTVVHQDWLNGKEYKCKVSNKGLPAPIEKTISKTKGQPREPQVYTLPPSREEMTKNQVSLTCLVKGFYPSDIAVEWESNGQPENNYKTTPPMLDSDGSFFLYSKLTVDKSRWQQGNVFSCSVMHEALHNHYTQKSLSLSPG
light: not shown
notes: also called CD73.4-IgG2CS; CD73.4-IgG2.3
B6: CD73.4-IgG2.5G1-KH (antibody)
heavy: QVQLVESGGGVVQPGRSLRLSCAASGFTFSNYGMHWVRQAPGKGLEWVAVILYDGSNKYYPDSVKGRFTISRDNSKNTLYLQMNSLRAEDTAVYYCARGGSSWYPDSFDIWGQGTMVTVSSASTKGPSVFPLAPSSRSTSESTAALGCLVKDYFPEPVTVSWNSGALTSGVHTFPAVLQSSGLYSLSSVVTVPSSNFGTQTYTCNVDHKPSNTKVDKTVERKCCVECPPCPAPPVAGPSVFLFPPKPKDTLMISRTPEVTCVVVDVSHEDPEVKFNWYVDGVEVHNAKTKPREEQYNSTYRVVSVLTVLHQDWLNGKEYKCKVSNKALPAPIEKTISKAKGQPREPQVYTLPPSREEMTKNQVSLTCLVKGFYPSDIAVEWESNGQPENNYKTTPPVLDSDGSFFLYSKLTVDKSRWQQGNVFSCSVMHEALHNHYTQKSLSLSPGK
light: not shown
notes: also called mAb-CD73.4-IgG2.5G1-KH; CD73.4-Vh-hHC-IgG2.5G1-KH
B7: CD73.4-IgG2.5G1.1f-KH (antibody)
heavy: B6 heavy with A330S, P331S
light: not shown
notes: also called mAb-CD73.4-IgG2.5G1.1f-KH; CD73.4-Vh-hHC-IgG2.5G1.1f-KH
B8: CD73.4-IgG2.3G1-KH (antibody)
heavy: B6 heavy with S135C, C223S
light: not shown
notes: also called mAb-CD73.4-IgG2.3G1-KH; CD73.4-Vh-hHC-IgG2.3G1-KH
B9: CD73.4-IgG2.5 (antibody)
heavy: B6 heavy with K274Q, Y296F, Y300F, L309V, A327G, A339T, V397M
light: not shown
notes: also called mAb-CD73.4-IgG2.5; CD73.4-Vh-hHC-IgG2.5

How the values were obtained:
human CD73 on cells [1] = target: T1, human CD73 on cells (human, UniProt P21589 27-549); test: cell-based or functional assay
T1 sequence (looked up): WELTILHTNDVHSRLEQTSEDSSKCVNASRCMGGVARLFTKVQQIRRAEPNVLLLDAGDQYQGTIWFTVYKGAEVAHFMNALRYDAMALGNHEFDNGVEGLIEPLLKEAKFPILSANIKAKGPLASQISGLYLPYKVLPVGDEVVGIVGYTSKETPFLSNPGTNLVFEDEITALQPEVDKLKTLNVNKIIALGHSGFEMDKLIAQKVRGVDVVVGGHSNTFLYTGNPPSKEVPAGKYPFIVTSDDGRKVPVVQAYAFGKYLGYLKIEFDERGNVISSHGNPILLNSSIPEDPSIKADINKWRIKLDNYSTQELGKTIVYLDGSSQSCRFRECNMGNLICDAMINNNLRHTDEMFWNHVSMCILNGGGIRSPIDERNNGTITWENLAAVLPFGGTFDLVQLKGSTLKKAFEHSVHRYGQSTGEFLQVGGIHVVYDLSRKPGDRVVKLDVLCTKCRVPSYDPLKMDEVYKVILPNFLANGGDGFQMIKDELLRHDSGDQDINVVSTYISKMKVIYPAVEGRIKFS

N-hCD73-his = target: T2, N-hCD73-his (human, UniProt P21589 26-336, limits assumed); test: SPR, mAb captured on protein A
T2 construct: monomeric in solution by SEC-MALS; also called N-terminal domain of hCD73
T2 sequence (looked up): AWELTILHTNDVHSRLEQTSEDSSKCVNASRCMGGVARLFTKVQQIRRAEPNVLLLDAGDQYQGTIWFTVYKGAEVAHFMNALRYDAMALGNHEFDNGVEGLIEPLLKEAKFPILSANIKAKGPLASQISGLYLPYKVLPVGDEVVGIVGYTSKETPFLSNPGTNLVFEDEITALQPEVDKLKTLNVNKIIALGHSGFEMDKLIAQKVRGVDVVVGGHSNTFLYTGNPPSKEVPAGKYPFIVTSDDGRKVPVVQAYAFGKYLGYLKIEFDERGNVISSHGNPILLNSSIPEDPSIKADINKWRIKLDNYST
Description: The affinity of the antibodies for human CD73 was measured to determine whether the change of the constant region affects them. The affinities were determined by Surface Plasmon Resonance (SPR) as follows. […] For these experiments, protein A (Pierce) was immobilized to a density of 3000-4000 RU on flow cells 1˜4 of a CMS sensor chip (GE Healthcare) using standard ethyl(dimethylaminopropyl) carbodiimide (EDC)/N-hydroxysuccinimide (NHS) chemistry, with ethanolamine blocking, in a running buffer of 0.01 M HEPES pH 7.4, 0.15 M NaCl, 3 mM EDTA, 0.005% v/v tween 20. […] The running buffer for the kinetic experiments was 10 mM sodium phosphate, 130 mM sodium chloride, 0.05% tween 20, pH 7.1. The surfaces were regenerated after each cycle using two 30 s pulses of 10 mM glycine pH 1.5 at a flow rate of 30 μl/min. Sensogram data was double-referenced and then fitted to a 1:1 Langmuir model using Biacore® T100 evaluation software v2.0.4, to determine the association rate constant (ka), the dissociation rate constant (kd), and the equilibrium dissociation constant (KD).

human CD73 on cells [2] = target: T1, human CD73 on cells; test: cell-based or functional assay; remark: listed apart in the source
hCD73-his [3] = target: T3, hCD73-his (human, UniProt P21589 26-546); test: SEC of equimolar mAb + hCD73-his
T3 construct: range 26-546; also called full length extracellular domain of human-CD73
T3 sequence (looked up): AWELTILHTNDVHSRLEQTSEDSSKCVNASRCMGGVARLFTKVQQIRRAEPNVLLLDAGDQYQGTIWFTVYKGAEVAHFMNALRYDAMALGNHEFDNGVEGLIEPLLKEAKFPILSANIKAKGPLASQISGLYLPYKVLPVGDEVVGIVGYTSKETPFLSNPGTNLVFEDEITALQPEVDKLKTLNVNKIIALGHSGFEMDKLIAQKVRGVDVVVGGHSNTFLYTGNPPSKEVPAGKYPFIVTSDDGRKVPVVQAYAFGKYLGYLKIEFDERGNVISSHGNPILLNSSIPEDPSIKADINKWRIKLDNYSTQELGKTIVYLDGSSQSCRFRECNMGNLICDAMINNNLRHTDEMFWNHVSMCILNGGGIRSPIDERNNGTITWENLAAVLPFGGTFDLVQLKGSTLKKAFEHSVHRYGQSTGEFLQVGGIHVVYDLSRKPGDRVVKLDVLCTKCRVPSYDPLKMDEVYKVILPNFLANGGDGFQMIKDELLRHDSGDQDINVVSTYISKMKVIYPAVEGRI
Description: (§1) The oligomeric state of CD73/antibody complexes were examined by size-exclusion chromatography coupled to an in-line multi-angle light scattering detector (SEC-MALS). Isocratic separations were performed on a Shodex PROTEIN KW-803 column connected to an Prominence Shimadzu UFLC in buffer containing 200 mM K₂HPO₄, 150 mM NaCl, pH 6.8, containing 0.02% Na azide (0.1 μm filtered) running at 0.5 mL/min. Samples were injected onto the column using a SIL-20AC Prominence Shimadzu® autosampler, and data were obtained from three online detectors connected in series: a Prominence SPD-20AD diode array UV/vis spectrophotometer followed by a Wyatt miniDAWN™ TREOS Multi-Angle Light Scattering Detector then a Wyatt Optilab T-rEX Refractive Index Detector® instrument. Data were collected and analyzed using Astra® (Wyatt) and Labsolutions® (Shimadzu) software.
CD73.4 antibodies having the heavy chain constant regions set forth in Table 14 were also tested for formation of high molecular weight complexes by SEC-MALS and DLS experiments, as described in Example 3.

human CD73 on cells [4] = target: T1, human CD73 on cells; test: cell-based or functional assay; remark: listed apart in the source
human CD73 on cells [5] = target: T1, human CD73 on cells; test: cell-based or functional assay; remark: listed apart in the source
hCD73-his [6] = target: T3, hCD73-his; test: SEC-MALS, target:mAb 1:1, 2.5 uM + 2.5 uM
Description: The structure and oligomeric state of CD73/antibody complexes in solution were examined by SEC-MALS and DLS.
as §1

| Binder | internalization T1/2, Calu6 (human CD73 on cells [2]) [min] | internalization T1/2, NCI-H292 (human CD73 on cells [2]) [min] | internalization Ymax, Calu6 (human CD73 on cells [2]) [%] | internalization Ymax, NCI-H292 (human CD73 on cells [2]) [%] | also measured |
| --- | --- | --- | --- | --- | --- |
| B1 |  |  |  |  | internalization EC50, Calu6 cells, 2 h (human CD73 on cells [1]): 0.58 nM; internalization Ymax (% of 100 nM 11F11), Calu6 cells (human CD73 on cells [1]): 98%; Kd (N-hCD73-his): 1.6 nM and 0.56 nM; koff (N-hCD73-his): 0.00042 s⁻¹ and 0.00016 s⁻¹; kon (N-hCD73-his): 260000 M⁻¹ s⁻¹ and 290000 M⁻¹ s⁻¹ |
| B2 | 21.3 | 17.6 | 81.2 | 91.4 | UV % Peak1 (<12.9 min) (hCD73-his [3]): 30.6%; UV % Peak4 (16.7-19.3 min) (hCD73-his [3]): 33.7%; UV % Peak5 (>19.3 min) (hCD73-his [3]): 3.2% |
| B3 | 20.1 | 16.3 | 81.7 | 91.6 |  |
| B4 | 17.2 | 15.4 | 80.2 | 89.6 |  |
| B5 |  |  |  |  | % internalization, Calu6 cells (human CD73 on cells [4]): 88%; % internalization, H228 cells (human CD73 on cells [4]): 94%; % internalization, H2030 cells (human CD73 on cells [4]): 89%; % internalization, HCC15 cells (human CD73 on cells [4]): 94%; internalization T1/2, Calu6 cells (human CD73 on cells [4]): 6.5 min; internalization T1/2, H228 cells (human CD73 on cells [4]): 13.8 min; internalization T1/2, H2030 cells (human CD73 on cells [4]): 3.7 min; internalization T1/2, HCC15 cells (human CD73 on cells [4]): 3.1 min; internalization T1/2, Calu6 (human CD73 on cells [5]): 36 min; internalization T1/2, NCI-H292 (human CD73 on cells [5]): 16.6 min; internalization Ymax, Calu6 (human CD73 on cells [5]): 75.6%; internalization Ymax, NCI-H292 (human CD73 on cells [5]): 78.4%; UV % Peak1 (<12.9 min) (hCD73-his [3]): 37%; UV % Peak3 (15.1-16.7 min) (hCD73-his [3]): 7.7%; UV % Peak4 (16.7-19.3 min) (hCD73-his [3]): 28.6%; UV % Peak5 (>19.3 min) (hCD73-his [3]): 2.9%; MW Peak 1 (hCD73-his [6]): 3400 kDa; MW Peak 2 (hCD73-his [6]): 970 kDa; MW Peak 3 (hCD73-his [6]): 480 kDa |
| B6 | 17 | 15.4 | 76 | 90.8 |  |
| B7 | 21.2 | 18 | 79.6 | 90.9 |  |
| B8 | 23.8 | 16.8 | 81.6 | 91.6 |  |
| B9 | 20.9 | 18.3 | 79 | 89.6 |  |
